Test results taken from paper PMC11018308.

Legend:
[1] = molecular target: cell-surface mucins (on HeLa cells); assay: flow cytometry on cells (anti-His staining, HeLa); conditions: 30 min at 4 °C in the presence of EDTA, n = 3 biologically independent replicates, read off a plot
[2] = molecular target: cell-surface mucins (on HeLa cells); assay: flow cytometry on cells; HeLa cells treated with His-tagged mucinases in cold FACS buffer (0.5% BSA in PBS) with 2 mM EDTA and 0.1% benzonase, 30 min on ice (4 °C); EDTA prevents enzyme activity; bound enzyme detected with FITC anti-His; effective (apparent) Kd from fits of normalised MFI

Substance	Kd ([1]; parent: est. 130 nM) [nM]	Kd [2] [nM]	further results
StcE, zinc metalloprotease (mucinase) from Escherichia coli serotype O157:H7 (from UniProt O82882) W366F	95	–	–
StcE, zinc metalloprotease (mucinase) from Escherichia coli serotype O157:H7 (from UniProt O82882) Y457A	120	–	–
StcE, zinc metalloprotease (mucinase) from Escherichia coli serotype O157:H7 (from UniProt O82882) Y457W	120	–	–
ddStcE^H367A (from UniProt O82882 36-898) (enzyme)	–	2000	–
ddStcE^W366A, engineered StcE (from UniProt O82882 36-898) (enzyme)	–	2000	–
double deletion StcE (ΔC and ΔINS) (from UniProt O82882) Y457A	–	–	Kd ([1]; parent: est. 1300 nM): 1300 nM
